In patent publication US20140072613A1, “Compositions and Methods for Treating Cutaneous Scarring” (priority 2012, published 2014):

Tests used:
Test in all cases: biochemical
Type in all cases: biochemical
266 human kinases [1] = target: T1, 266 human kinases (Homo sapiens, UniProt O00141); conditions: SGK(h); 100 μM
T1 sequence (O00141 1-431): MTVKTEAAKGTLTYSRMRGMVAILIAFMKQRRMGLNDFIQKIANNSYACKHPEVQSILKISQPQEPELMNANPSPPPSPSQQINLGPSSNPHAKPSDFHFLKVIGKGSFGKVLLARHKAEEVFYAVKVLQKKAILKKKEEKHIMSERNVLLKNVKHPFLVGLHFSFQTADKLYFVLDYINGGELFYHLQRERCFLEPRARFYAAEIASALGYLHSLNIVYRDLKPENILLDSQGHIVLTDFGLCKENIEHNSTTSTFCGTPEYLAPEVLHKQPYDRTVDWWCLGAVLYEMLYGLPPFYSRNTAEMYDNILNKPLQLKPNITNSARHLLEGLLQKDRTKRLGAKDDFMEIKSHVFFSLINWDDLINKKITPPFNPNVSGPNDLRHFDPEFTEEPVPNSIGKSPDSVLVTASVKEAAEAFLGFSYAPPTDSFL
Method in brief: (§1)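 Kinase phosphorylates cationic substrate with radiolabelled ATP phosphate; substrate retained on anionic filter membrane; scintillation count; % of 100% activity control.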

266 human kinases [2] = target: 266 human kinases (Homo sapiens, UniProt P00519, Q252H); conditions: Abl(Q252H)(h); 100 μM
Method in brief: as §1

266 human kinases [3] = target: 266 human kinases (Homo sapiens, UniProt P04049); conditions: c-RAF(h); 100 μM
Method in brief: as §1

266 human kinases [4] = target: 266 human kinases (Homo sapiens, UniProt P50750); conditions: CDK9/cyclin T1(h); 100 μM
Method in brief: as §1

266 human kinases [5] = target: 266 human kinases (Homo sapiens, UniProt Q06187, R28H); conditions: BTK(R28H)(h); 100 μM
Method in brief: as §1

266 human kinases [6] = target: 266 human kinases (Homo sapiens, UniProt Q16832); conditions: DDR2(h); 100 μM
Method in brief: as §1

266 human kinases [7] = target: 266 human kinases (Homo sapiens, UniProt Q86Z02); conditions: HIPK1(h); 100 μM
Method in brief: as §1

266 human kinases [8] = target: 266 human kinases (Homo sapiens, UniProt Q9H1R3); conditions: MLCK(h); 100 μM
Method in brief: as §1

266 human kinases [9] = target: T2, 266 human kinases (Homo sapiens, UniProt Q9H2K8); conditions: TAO3(h); 100 μM
T2 sequence (Q9H2K8 1-898): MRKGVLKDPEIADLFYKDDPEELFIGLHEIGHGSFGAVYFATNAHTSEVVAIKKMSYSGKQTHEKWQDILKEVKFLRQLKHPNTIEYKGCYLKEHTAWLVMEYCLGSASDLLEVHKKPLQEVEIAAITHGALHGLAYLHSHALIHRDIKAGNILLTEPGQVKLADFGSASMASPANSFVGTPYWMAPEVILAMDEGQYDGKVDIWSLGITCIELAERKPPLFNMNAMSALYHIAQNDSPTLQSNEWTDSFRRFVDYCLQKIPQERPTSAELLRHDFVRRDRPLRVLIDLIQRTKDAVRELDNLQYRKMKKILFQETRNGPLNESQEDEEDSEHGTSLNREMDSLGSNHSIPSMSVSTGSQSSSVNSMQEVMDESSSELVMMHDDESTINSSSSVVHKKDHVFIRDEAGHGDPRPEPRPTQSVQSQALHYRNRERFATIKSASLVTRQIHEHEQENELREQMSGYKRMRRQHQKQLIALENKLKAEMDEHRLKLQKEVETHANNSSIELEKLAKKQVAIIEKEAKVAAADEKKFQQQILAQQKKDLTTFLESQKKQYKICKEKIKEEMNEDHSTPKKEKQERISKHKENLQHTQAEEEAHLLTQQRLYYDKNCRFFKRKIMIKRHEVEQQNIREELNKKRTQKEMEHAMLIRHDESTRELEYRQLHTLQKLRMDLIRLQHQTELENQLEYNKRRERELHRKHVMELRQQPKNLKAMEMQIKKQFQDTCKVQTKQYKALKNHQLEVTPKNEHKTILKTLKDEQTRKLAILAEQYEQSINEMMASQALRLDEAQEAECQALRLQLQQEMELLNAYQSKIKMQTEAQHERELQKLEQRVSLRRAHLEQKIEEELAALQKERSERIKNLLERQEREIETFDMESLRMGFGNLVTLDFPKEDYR
Method in brief: as §1

266 human kinases [10] = target: T3, 266 human kinases (Homo sapiens, UniProt Q9HBY8); conditions: SGK2(h); 100 μM
T3 sequence (Q9HBY8 whole entry, looked up): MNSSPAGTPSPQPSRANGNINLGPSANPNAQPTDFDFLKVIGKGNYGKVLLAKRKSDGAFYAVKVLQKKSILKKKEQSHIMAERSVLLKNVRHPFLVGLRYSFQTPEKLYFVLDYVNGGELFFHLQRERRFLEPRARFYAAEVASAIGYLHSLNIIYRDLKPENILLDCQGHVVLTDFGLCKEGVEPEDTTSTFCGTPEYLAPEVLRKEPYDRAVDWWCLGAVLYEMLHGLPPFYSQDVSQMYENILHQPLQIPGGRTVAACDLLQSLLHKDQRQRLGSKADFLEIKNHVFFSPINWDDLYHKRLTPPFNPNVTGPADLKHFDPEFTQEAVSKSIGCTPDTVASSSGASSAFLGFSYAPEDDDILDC
Method in brief: as §1

266 human kinases [11] = target: 266 human kinases (Homo sapiens, UniProt Q9P0L2); conditions: MARK1(h); 100 μM
Method in brief: as §1

266 human kinases [12] = target: 266 human kinases (Homo sapiens, UniProt P34947); conditions: GRK5(h); 100 μM
Method in brief: as §1

Chain of 266 human kinases (Homo sapiens, UniProt Q16832) (Q16832 22-855): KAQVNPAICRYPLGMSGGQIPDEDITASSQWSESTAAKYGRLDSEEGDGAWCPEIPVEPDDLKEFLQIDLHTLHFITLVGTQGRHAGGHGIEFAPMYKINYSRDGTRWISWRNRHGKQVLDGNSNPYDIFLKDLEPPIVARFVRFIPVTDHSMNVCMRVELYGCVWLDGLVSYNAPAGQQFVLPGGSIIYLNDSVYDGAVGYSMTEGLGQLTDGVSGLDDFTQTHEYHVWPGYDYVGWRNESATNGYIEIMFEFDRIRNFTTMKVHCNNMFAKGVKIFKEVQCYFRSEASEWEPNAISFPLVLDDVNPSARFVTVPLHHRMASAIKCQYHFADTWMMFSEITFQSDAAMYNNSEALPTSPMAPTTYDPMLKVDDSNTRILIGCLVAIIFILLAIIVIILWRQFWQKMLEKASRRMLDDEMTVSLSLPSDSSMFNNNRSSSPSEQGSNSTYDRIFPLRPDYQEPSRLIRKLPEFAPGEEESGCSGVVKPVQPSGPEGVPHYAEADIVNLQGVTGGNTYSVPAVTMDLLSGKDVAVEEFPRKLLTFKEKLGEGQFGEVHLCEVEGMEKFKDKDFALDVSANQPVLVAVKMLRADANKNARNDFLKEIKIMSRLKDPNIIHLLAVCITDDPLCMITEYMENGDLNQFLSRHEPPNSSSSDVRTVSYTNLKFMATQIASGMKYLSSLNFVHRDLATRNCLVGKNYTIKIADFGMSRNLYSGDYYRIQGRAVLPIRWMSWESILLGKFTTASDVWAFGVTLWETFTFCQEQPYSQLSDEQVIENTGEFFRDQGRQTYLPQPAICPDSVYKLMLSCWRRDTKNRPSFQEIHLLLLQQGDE
Chain of 266 human kinases (Homo sapiens, UniProt P50750) (P50750 whole entry): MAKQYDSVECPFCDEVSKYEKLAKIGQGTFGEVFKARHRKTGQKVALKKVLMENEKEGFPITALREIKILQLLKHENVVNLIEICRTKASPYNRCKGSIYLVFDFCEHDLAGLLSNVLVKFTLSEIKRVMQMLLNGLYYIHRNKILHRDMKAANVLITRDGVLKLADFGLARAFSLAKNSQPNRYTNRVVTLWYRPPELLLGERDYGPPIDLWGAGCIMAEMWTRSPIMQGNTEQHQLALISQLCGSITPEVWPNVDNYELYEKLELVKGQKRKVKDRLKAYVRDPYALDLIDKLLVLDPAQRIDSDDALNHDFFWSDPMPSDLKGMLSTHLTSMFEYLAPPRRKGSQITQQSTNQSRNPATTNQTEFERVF
Chain of 266 human kinases (Homo sapiens, UniProt Q9H1R3) (Q9H1R3 whole entry): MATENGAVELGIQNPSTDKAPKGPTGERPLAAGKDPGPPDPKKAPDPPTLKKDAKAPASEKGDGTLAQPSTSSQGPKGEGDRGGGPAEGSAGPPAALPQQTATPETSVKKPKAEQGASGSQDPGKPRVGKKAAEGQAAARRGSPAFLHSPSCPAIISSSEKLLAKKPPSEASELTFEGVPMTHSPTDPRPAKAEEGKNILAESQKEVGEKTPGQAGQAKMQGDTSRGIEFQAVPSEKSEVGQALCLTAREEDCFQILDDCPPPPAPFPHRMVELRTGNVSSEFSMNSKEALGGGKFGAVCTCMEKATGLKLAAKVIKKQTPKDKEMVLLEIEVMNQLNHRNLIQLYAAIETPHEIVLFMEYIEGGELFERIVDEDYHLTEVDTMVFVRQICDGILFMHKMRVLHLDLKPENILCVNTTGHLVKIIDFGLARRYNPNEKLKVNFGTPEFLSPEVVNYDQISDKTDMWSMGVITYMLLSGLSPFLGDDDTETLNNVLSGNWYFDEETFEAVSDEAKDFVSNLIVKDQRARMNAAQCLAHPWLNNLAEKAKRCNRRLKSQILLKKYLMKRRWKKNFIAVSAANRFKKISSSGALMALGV
Chain of 266 human kinases (Homo sapiens, UniProt Q06187, R28H) (Q06187 whole entry R28H): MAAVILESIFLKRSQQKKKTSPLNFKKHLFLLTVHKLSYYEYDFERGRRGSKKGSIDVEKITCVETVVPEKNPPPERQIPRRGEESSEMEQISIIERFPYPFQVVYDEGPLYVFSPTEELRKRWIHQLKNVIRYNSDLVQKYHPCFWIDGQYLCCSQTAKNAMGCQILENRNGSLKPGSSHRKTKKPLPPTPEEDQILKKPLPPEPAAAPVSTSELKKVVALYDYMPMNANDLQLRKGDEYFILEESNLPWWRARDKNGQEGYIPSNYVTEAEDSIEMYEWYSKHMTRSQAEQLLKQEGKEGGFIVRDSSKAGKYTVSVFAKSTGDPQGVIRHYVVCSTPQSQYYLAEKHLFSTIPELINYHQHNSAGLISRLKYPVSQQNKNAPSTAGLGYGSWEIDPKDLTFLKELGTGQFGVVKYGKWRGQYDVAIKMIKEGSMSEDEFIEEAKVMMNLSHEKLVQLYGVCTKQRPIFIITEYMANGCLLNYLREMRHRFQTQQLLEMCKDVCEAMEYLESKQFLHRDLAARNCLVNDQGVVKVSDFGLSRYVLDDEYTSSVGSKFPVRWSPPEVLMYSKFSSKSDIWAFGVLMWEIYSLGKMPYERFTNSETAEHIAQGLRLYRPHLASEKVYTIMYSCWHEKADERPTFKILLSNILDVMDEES
Chain of 266 human kinases (Homo sapiens, UniProt Q9P0L2) (Q9P0L2 whole entry): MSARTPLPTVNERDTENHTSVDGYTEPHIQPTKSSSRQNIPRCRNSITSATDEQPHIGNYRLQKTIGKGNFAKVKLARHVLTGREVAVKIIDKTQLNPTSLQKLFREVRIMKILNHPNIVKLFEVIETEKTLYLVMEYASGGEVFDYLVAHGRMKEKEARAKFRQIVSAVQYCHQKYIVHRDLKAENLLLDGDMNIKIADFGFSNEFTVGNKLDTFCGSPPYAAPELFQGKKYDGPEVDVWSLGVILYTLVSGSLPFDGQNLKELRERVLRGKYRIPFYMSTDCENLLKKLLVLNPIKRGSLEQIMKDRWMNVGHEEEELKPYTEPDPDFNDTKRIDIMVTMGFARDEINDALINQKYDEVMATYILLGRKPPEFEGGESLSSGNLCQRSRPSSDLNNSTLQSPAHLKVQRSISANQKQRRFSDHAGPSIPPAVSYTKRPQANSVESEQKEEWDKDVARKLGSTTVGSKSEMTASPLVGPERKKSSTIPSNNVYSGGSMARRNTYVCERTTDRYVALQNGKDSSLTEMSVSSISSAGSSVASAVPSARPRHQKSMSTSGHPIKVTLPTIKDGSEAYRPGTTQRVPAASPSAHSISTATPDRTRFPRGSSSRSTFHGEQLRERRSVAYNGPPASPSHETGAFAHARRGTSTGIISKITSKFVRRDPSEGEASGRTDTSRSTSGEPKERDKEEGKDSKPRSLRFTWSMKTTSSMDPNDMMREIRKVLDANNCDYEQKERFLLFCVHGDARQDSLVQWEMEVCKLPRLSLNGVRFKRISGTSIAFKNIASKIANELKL
Chain of 266 human kinases (Homo sapiens, UniProt P34947) (P34947 whole entry): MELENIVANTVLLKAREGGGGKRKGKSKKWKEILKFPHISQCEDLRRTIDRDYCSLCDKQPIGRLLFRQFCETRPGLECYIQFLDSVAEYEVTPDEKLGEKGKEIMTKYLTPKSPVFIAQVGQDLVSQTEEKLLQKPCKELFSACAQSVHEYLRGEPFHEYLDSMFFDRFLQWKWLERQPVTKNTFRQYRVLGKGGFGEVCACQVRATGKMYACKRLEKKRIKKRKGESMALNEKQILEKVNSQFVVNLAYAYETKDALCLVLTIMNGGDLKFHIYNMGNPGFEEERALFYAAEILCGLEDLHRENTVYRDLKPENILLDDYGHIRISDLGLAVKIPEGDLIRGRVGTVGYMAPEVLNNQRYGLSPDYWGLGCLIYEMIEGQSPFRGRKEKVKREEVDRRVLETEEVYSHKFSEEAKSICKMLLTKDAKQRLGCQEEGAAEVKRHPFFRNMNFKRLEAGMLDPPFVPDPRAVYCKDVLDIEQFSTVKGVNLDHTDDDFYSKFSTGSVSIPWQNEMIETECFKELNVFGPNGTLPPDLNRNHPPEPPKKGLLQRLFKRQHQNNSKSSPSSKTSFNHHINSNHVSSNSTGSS
Chain of 266 human kinases (Homo sapiens, UniProt Q86Z02) (Q86Z02 whole entry): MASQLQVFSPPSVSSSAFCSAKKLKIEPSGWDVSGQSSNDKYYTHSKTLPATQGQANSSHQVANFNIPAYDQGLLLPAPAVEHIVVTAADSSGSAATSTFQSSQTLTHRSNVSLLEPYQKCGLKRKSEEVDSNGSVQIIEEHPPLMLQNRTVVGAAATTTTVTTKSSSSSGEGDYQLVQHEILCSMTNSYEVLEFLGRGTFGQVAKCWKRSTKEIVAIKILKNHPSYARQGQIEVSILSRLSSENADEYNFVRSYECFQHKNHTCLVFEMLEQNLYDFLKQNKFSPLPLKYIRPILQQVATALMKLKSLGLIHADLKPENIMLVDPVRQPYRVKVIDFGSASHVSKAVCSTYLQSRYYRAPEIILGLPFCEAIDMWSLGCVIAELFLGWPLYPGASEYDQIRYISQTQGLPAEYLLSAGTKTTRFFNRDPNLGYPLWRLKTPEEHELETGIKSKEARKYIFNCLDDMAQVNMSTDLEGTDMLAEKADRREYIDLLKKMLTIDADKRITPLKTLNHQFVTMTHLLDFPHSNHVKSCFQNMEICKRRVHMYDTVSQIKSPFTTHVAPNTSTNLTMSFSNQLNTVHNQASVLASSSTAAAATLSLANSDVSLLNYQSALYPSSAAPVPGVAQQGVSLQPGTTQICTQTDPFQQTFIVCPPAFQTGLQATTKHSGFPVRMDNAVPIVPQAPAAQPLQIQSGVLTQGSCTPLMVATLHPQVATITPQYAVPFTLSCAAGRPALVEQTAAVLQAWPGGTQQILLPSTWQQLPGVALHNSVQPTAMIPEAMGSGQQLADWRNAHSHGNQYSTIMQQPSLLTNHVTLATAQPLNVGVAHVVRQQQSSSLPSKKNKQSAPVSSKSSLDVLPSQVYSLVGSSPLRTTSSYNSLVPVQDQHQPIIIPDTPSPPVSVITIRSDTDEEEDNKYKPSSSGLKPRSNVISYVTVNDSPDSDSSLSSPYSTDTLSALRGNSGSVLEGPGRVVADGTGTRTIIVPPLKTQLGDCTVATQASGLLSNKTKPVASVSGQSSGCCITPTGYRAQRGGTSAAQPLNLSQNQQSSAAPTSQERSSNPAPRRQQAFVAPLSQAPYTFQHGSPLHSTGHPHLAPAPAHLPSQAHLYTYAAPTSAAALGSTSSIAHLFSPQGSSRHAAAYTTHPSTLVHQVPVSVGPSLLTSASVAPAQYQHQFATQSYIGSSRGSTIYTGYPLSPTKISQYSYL

Sequence | % activity (266 human kinases [1]) [%] | % activity (266 human kinases [2]) [%] | % activity (266 human kinases [3]) [%] | % activity (266 human kinases [4]) [%] | % activity (266 human kinases [5]) [%] | % activity (266 human kinases [6]) [%] | % activity (266 human kinases [7]) [%] | % activity (266 human kinases [8]) [%] | % activity (266 human kinases [9]) [%] | % activity (266 human kinases [10]) [%] | % activity (266 human kinases [11]) [%] | % activity (266 human kinases [12]) [%]
HRRIKAWLKKIKALARQLGVAA (mammal) [MMI-0500] | 2 | 40 | 19 | 6 | 10 | 79 | 47 | 0 | 12 | −1 | 110 | 
YARAAARQARAKALNRQLGVA (mammal) [MMI-0200] |  |  |  |  |  |  |  |  |  |  |  | 135
